Experimental findings from article PMC11480844 (2024) are described below.

The chains are these.
B1: H2-Kb / Ed10 (parent complex)
chain 1: GEQVEQRPPHLSVREGDSAFIICTYTDSATAYFYWYKQEPGAGLQLLMSVFSNVDRKEEQGLTVLLNKKDKRLSLNLTAAHPGDSAVYFCAVRGTGYQNFYFGKGTSLTVIP
chain 2: AQTIHQWPVAEIKAVGSPLSLGCTIKGKSSPNLYWYWQATGGTLQQLFYSITVGQVESVVQLNLSASRPKDDQFILSTEKLLLSHSGFYLCAWSPGYEQYFGPGTRLTVL
chain 3: not shown
chain 4: IQKTPQIQVYSRHPPENGKPNILNCYVTQFHPPHIEIQMLKNGKKIPKVEMSDMSFSKDWSFYILAHTEFTPTETDTYACRVKHDSMAEPKTVYWDRDM
chain 5: SIINFEKL
B2: H2-Kb / Ed16-1 (parent complex)
chain 1: GEQVEQRPPHLSVREGDSAVITCTYTDPNSYYFFWYKQEPGASLQLLMKVFSSTEINEGQGFTVLLNKKDKRLSLNLTAAHPGDSAAYFCAVSGSNNRIFFGDGTQLVVKP
chain 2: EAAVTQSPRSKVAVTGGKVTLSCHQTNNHDYMYWYRQDTGHGLRLIHYSYVADSTEKGDIPDGYKASRPSQENFSLILELASLSQTAVYFCASRTGTDYTFGSGTRLLVI
chain 3: not shown
chain 4: B1 chain 4
chain 5: SIINFEKL
Further: test concentration or dose not given here.

Variants of B1 are the subject of the first experiment. Description: % of reporter cells activated (NFAT-GFP), raw.
Consider chain 5 N4R, for which the ratio to parent was 0.104.

chain 5 N4I: the ratio to parent was 0.0807.

Regarding chain 5 N4H, the ratio to parent came to 0.777.

chain 5 N4L: the ratio to parent came to 0.728.

Regarding chain 5 N4F, the ratio to parent amounted to 0.0998.

Regarding chain 5 N4G, the ratio to parent stood at 0.0998.

With chain 5 N4P, the ratio to parent was determined as 0.551.

Take chain 5 N4V: the ratio to parent came out at 0.00517.

Regarding chain 5 N4S, the ratio to parent is 0.33.

For the variant chain 5 N4E, the ratio to parent came out at 0.178.

In the case of chain 5 N4A, the ratio to parent was 0.353.

chain 5 N4Y: the ratio to parent came out at 0.354.

For chain 5 N4D, the ratio to parent was found to be 0.847.

For the variant chain 5 N4C, the ratio to parent came out at 0.13.

For chain 5 N4W, the ratio to parent is 0.424.

Consider chain 5 N4Q, for which the ratio to parent worked out at 0.189.

Take chain 5 N4T: the ratio to parent is 0.0278.

For chain 5 N4K, the ratio to parent was 0.342.

Regarding chain 5 N4M, the ratio to parent came out at 0.127.

In the case of chain 5 S1V, the ratio to parent worked out at 0.913.

On to chain 5 S1K, for which the ratio to parent turned out to be 0.841.

Consider chain 5 S1R, for which the ratio to parent stood at 0.72.

chain 5 S1E: the ratio to parent came out at 0.888.

Take chain 5 S1M: the ratio to parent was found to be 1.02.

As for chain 5 S1C, the ratio to parent stood at 0.759.

In the case of chain 5 S1I, the ratio to parent was 0.814.

Consider chain 5 S1P, for which the ratio to parent was 0.946.

For chain 5 S1F, the ratio to parent was determined as 0.726.

As for chain 5 S1Y, the ratio to parent worked out at 1.

For chain 5 S1T, the ratio to parent was found to be 1.01.

Turning to chain 5 S1L, the ratio to parent amounted to 0.914.

Consider chain 5 S1D, for which the ratio to parent is 0.938.

For chain 5 S1Q, the ratio to parent was 0.931.

For the variant chain 5 S1N, the ratio to parent worked out at 0.524.

chain 5 S1G: the ratio to parent worked out at 0.978.

With chain 5 S1A, the ratio to parent turned out to be 0.977.

For the variant chain 5 L8D, the ratio to parent is 0.803.

Take chain 5 L8P: the ratio to parent is 0.885.

As to chain 5 L8C, the ratio to parent was 0.921.

With chain 5 L8N, the ratio to parent came to 0.862.

chain 5 L8I: the ratio to parent was determined as 0.864.

Take chain 5 L8T: the ratio to parent came out at 0.81.

With chain 5 L8S, the ratio to parent was determined as 0.74.

With chain 5 L8V, the ratio to parent came to 0.721.

chain 5 L8F: the ratio to parent came to 0.838.

As for chain 5 L8K, the ratio to parent was 0.88.

Turning to chain 5 L8G, the ratio to parent turned out to be 0.937.

With chain 5 L8A, the ratio to parent amounted to 0.858.

In the case of chain 5 L8M, the ratio to parent came to 0.813.

In the case of chain 5 L8Y, the ratio to parent is 0.956.

For the variant chain 5 L8R, the ratio to parent is 0.949.

As for chain 5 L8Q, the ratio to parent is 0.897.

In the case of chain 5 L8E, the ratio to parent turned out to be 0.721.

Regarding chain 5 L8H, the ratio to parent amounted to 0.916.

Take chain 5 L8W: the ratio to parent came to 0.702.

Turning to chain 5 I3N, the ratio to parent came to 0.683.

For the variant chain 5 I3S, the ratio to parent turned out to be 0.873.

With chain 5 I3H, the ratio to parent worked out at 0.828.

As to chain 5 I3Y, the ratio to parent is 0.368.

As to chain 5 I3V, the ratio to parent was determined as 0.927.

For chain 5 I3D, the ratio to parent came to 0.691.

As for chain 5 I3Q, the ratio to parent was 0.826.

chain 5 I3E: the ratio to parent worked out at 0.916.

For the variant chain 5 I3T, the ratio to parent amounted to 0.829.

Take chain 5 I3W: the ratio to parent amounted to 0.739.

On to chain 5 I3F, for which the ratio to parent amounted to 0.713.

With chain 5 I3A, the ratio to parent came out at 0.96.

With chain 5 I3L, the ratio to parent was found to be 0.972.

As for chain 5 I3P, the ratio to parent was determined as 0.933.

As to chain 5 I3C, the ratio to parent came out at 0.914.

Regarding chain 5 I3K, the ratio to parent turned out to be 0.828.

As for chain 5 I3G, the ratio to parent came out at 0.724.

chain 5 I3R: the ratio to parent came out at 0.631.

In the case of chain 5 I3M, the ratio to parent came out at 0.913.

Take chain 5 K7L: the ratio to parent amounted to 0.461.

Consider chain 5 K7H, for which the ratio to parent was found to be 0.183.

Turning to chain 5 K7F, the ratio to parent was 0.184.

chain 5 K7T: the ratio to parent turned out to be 0.102.

With chain 5 K7Y, the ratio to parent stood at 0.402.

For chain 5 K7E, the ratio to parent came to 0.00697.

As to chain 5 K7N, the ratio to parent was 0.726.

Consider chain 5 K7Q, for which the ratio to parent was found to be 0.0405.

With chain 5 K7P, the ratio to parent was 0.685.

chain 5 K7A: the ratio to parent turned out to be 0.495.

Turning to chain 5 K7V, the ratio to parent amounted to 0.563.

Take chain 5 K7I: the ratio to parent is 0.00197.

For chain 5 K7D, the ratio to parent is 0.355.

With chain 5 K7G, the ratio to parent is 0.79.

Consider chain 5 K7W, for which the ratio to parent was determined as 0.601.

As for chain 5 K7S, the ratio to parent came to 0.744.

chain 5 K7R: the ratio to parent was 0.668.

Regarding chain 5 K7C, the ratio to parent is 0.143.

Take chain 5 K7M: the ratio to parent was determined as 0.28.

In the case of chain 5 I2W, the ratio to parent was found to be 0.751.

As to chain 5 I2T, the ratio to parent was found to be 1.02.

Take chain 5 I2M: the ratio to parent was 0.933.

On to chain 5 I2L, for which the ratio to parent was found to be 0.955.

As for chain 5 I2R, the ratio to parent worked out at 0.712.

On to chain 5 I2N, for which the ratio to parent came out at 0.841.

On to chain 5 I2Y, for which the ratio to parent turned out to be 0.898.

chain 5 I2V: the ratio to parent stood at 0.962.

Take chain 5 I2F: the ratio to parent is 0.941.

Consider chain 5 I2C, for which the ratio to parent turned out to be 0.907.

As for chain 5 I2D, the ratio to parent amounted to 0.977.

Turning to chain 5 I2G, the ratio to parent is 0.939.

For chain 5 I2H, the ratio to parent stood at 0.915.

As to chain 5 I2P, the ratio to parent is 0.973.

Turning to chain 5 I2A, the ratio to parent came to 1.02.

In the case of chain 5 I2E, the ratio to parent came to 0.966.

With chain 5 I2S, the ratio to parent turned out to be 0.988.

Regarding chain 5 I2K, the ratio to parent was 0.876.

With chain 5 I2Q, the ratio to parent turned out to be 0.914.

For chain 5 F5A, the ratio to parent is 0.912.

chain 5 F5K: the ratio to parent turned out to be 0.688.

As for chain 5 F5E, the ratio to parent came out at 0.78.

With chain 5 F5R, the ratio to parent came to 0.815.

Consider chain 5 F5Q, for which the ratio to parent was determined as 0.879.

In the case of chain 5 F5G, the ratio to parent was found to be 0.581.

Turning to chain 5 F5Y, the ratio to parent is 1.03.

In the case of chain 5 F5T, the ratio to parent was 0.758.

For the variant chain 5 F5W, the ratio to parent turned out to be 0.659.

As to chain 5 F5C, the ratio to parent is 0.857.

chain 5 F5D: the ratio to parent came out at 0.897.

As for chain 5 F5P, the ratio to parent worked out at 0.437.

For chain 5 F5H, the ratio to parent was determined as 0.876.

Consider chain 5 F5M, for which the ratio to parent was determined as 0.958.

As for chain 5 F5V, the ratio to parent amounted to 0.775.

For chain 5 F5I, the ratio to parent was found to be 0.815.

As to chain 5 F5S, the ratio to parent amounted to 0.764.

For the variant chain 5 F5N, the ratio to parent stood at 0.711.

With chain 5 F5L, the ratio to parent was 0.925.

As to chain 5 E6L, the ratio to parent stood at 0.0597.

Regarding chain 5 E6W, the ratio to parent came to 0.00924.

Regarding chain 5 E6A, the ratio to parent came to 0.0198.

Take chain 5 E6P: the ratio to parent amounted to 0.045.

As for chain 5 E6I, the ratio to parent was determined as 0.00258.

As for chain 5 E6V, the ratio to parent came out at 0.00689.

In the case of chain 5 E6Y, the ratio to parent is 0.503.

With chain 5 E6R, the ratio to parent was determined as 0.0435.

In the case of chain 5 E6C, the ratio to parent turned out to be 0.00556.

Take chain 5 E6H: the ratio to parent stood at 0.377.

Consider chain 5 E6D, for which the ratio to parent amounted to 0.557.

As for chain 5 E6T, the ratio to parent worked out at 0.0117.

As to chain 5 E6M, the ratio to parent was 0.384.

On to chain 5 E6K, for which the ratio to parent came to 0.878.

Regarding chain 5 E6N, the ratio to parent turned out to be 0.0352.

With chain 5 E6Q, the ratio to parent came to 0.19.

As for chain 5 E6F, the ratio to parent amounted to 0.0734.

The variants in another experiment derive from B2. Description: % of reporter cells activated (NFAT-GFP), raw.
With chain 5 S1D, the ratio to parent came out at 0.0292.

Turning to chain 5 L8K, the ratio to parent came out at 0.951.
